Test results as given in the supplement of paper PMC10567573.
± gives the standard deviation.

Assay: protein stability index of a GFP-peptide fusion (GPS, HEK-293T) (PSI 1-6); higher = more stable
[1] = treatment: DMSO, c terminus: a fixed tail appended
[2] = treatment: MLN4924 1 uM, 8 h, c terminus: a fixed tail appended
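Note: 24-mer peptide tiles fused after GFP, lentivirally expressed, FACS-sorted into six equal bins by GFP/DsRed ratio, decoded by Illumina sequencing, PSI is the read-weighted mean bin number.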

LSWYRGRRPRTAFTQNQIEVLENV [HESX1]
protein stability index [1]: 3.03 ± 0.094
protein stability index [2]: 3 ± 0.28

LTEQQEQLRGQLQDLDSRLRAGSS [RASAL3]
protein stability index [1]: 5.08 ± 0.18
protein stability index [2]: 5.19 ± 0.23

LTEQVWKVQDALQNQSDSLLALAG [SCARA5]
protein stability index [1]: 3.65 ± 0.16
protein stability index [2]: 3.82 ± 0.37

LTKLLASKSKEEVSSLISEKTNGA [FEM1C]
protein stability index [1]: 4.07 ± 0.22
protein stability index [2]: 4.38 ± 0.26

LTNSNLPEEELDFFEILRLFFPVI [CNOT7]
protein stability index [1]: 2.39 ± 0.31
protein stability index [2]: 2.47 ± 0.41

LTVYAWERGSMKTHFNTAQGFRTV [OAS1]
protein stability index [1]: 2.72 ± 0.57
protein stability index [2]: 2.52 ± 0.21

LVDHVGSKTFLCIGSSVMAASLVT [SLC2A12]
protein stability index [1]: 3.06 ± 0.76
protein stability index [2]: 3.05 ± 0.57

LVGLATAAFGHVQRAEMLPKTSGT [CPOX]
protein stability index [1]: 2.9 ± 0.3
protein stability index [2]: 2.91 ± 0.14

LWWDPIQRLLFSGASDNSIIMWDI [WDFY1]
protein stability index [1]: 2.65 ± 0.54
protein stability index [2]: 2.69 ± 0.83

LYLRVELSDVQNPAISITENVLHF [HACD3]
protein stability index [1]: 2.82 ± 0.57
protein stability index [2]: 2.88 ± 0.64

MAAVLNAERLEVSVDGLTLSPDPE [ACBD3]
protein stability index [1]: 4.41 ± 0.17
protein stability index [2]: 4.59 ± 0.17

MAEAAALVWIRGPGFGCKAVRCAS [SDE2]
protein stability index [1]: 2.45 ± 0.47
protein stability index [2]: 2.35 ± 0.53

MAQPLCIRALLNLHTDVGSVRMRR [NEK8]
protein stability index [1]: 2.48 ± 0.16
protein stability index [2]: 2.58 ± 0.099

MCRVDLRGHMPEWYTKSFGHLCAA [DLC1]
protein stability index [1]: 2.23 ± 0.43
protein stability index [2]: 2.1 ± 0.53

MDSGTRPVGSCCSSPAGLSREYKL [RIT1]
protein stability index [1]: 3.35 ± 0.18
protein stability index [2]: 3.3 ± 0.16

METSASSSQPQDNSQVHRETEDVD [TMEM40]
protein stability index [1]: 5.54 ± 0.25
protein stability index [2]: 5.56 ± 0.32

MEVGSGSRELSLRPSRSGAQQLEE [EID1]
protein stability index [1]: 5.43 ± 0.23
protein stability index [2]: 5.25 ± 0.35

MFPGVLLPLLESCSVRPDASVSSH [TCF25]
protein stability index [1]: 2.62 ± 0.38
protein stability index [2]: 2.18 ± 0.2

MGCLGVAKEDGKADTKKRHTPRGH [SMOC2]
protein stability index [1]: 5.15 ± 0.17
protein stability index [2]: 5 ± 0.12

MKACQEDDVRLLCHLTPSIYTEFP [INTS3]
protein stability index [1]: 2.62 ± 0.28
protein stability index [2]: 2.55 ± 0.25

MKAKQEALVKEREKQLAKKEQSKE [FAM50A]
protein stability index [1]: 5.62 ± 0.24
protein stability index [2]: 5.55 ± 0.13

MKCQSYCEPPSYRPMHHEDFKEDL [CDC25A]
protein stability index [1]: 3.77 ± 0.16
protein stability index [2]: 4.02 ± 0.23

MLAIITKMTLTQVSTWFANARRRL [IRX6]
protein stability index [1]: 2.29 ± 0.49
protein stability index [2]: 2.26 ± 0.27

MLDSALRFQAMEETHLRHMKALLG [FCHO1]
protein stability index [1]: 2.23 ± 0.37
protein stability index [2]: 2.33 ± 0.25

MLESPGAPCRSAQASVSCALEALE [HDAC6]
protein stability index [1]: 3.35 ± 0.58
protein stability index [2]: 3.38 ± 0.4

MPPKFKRHLNDDDVTGSVKSERRN [VAMP4]
protein stability index [1]: 4.79 ± 0.27
protein stability index [2]: 4.84 ± 0.18

MPSWASARDRQPSDFKTDKEGGQA [ELOA2]
protein stability index [1]: 5.14 ± 0.43
protein stability index [2]: 5.2 ± 0.22

MQCLISNVEAQLSEIRCDLERQNQ [KRT36]
protein stability index [1]: 3.53 ± 0.11
protein stability index [2]: 3.32 ± 0.22

MQGAYCTFPASVLAPVPTHSTVSE [DUSP5]
protein stability index [1]: 3.47 ± 0.2
protein stability index [2]: 3.61 ± 0.17

MQKRSKAIHSSDEDEDEDDEEDFE [WASL]
protein stability index [1]: 4.58 ± 0.23
protein stability index [2]: 4.69 ± 0.21

MQSARGPTPSSPLPSVPVSVPASD [PLEKHN1]
protein stability index [1]: 4.78 ± 0.28
protein stability index [2]: 4.79 ± 0.11

MRKTSNSCIMENGHQPGTGPGDGP [SMTNL2]
protein stability index [1]: 4.42 ± 0.064
protein stability index [2]: 4.55 ± 0.11

MRNLKASLENSLREVEARYALQME [KRT18]
protein stability index [1]: 3.22 ± 0.12
protein stability index [2]: 3.25 ± 0.38

MRRMVATWMLEVCEEQKCEEEVFP [CCND2]
protein stability index [1]: 2.9 ± 0.46
protein stability index [2]: 3.14 ± 0.045

MRVDLRAGDEAVFAQYDSFHVDSA [TNXB]
protein stability index [1]: 3.34 ± 0.56
protein stability index [2]: 3.22 ± 0.37

MSDYRGFGIGSEILKNLSQVAMRC [SAT1]
protein stability index [1]: 2.11 ± 0.48
protein stability index [2]: 2.46 ± 0.56

MSHHPSGLRAGFSSTSYRRTFGPP [PRPH]
protein stability index [1]: 2.92 ± 0.23
protein stability index [2]: 2.94 ± 0.1

MSKQRERQLRRRALHPERAMDNHS [RETREG3]
protein stability index [1]: 4.31 ± 0.17
protein stability index [2]: 4.44 ± 0.088

MTTPAGSGSGFGSVSWWGLSPALD [DNAAF3]
protein stability index [1]: 2.47 ± 0.29
protein stability index [2]: 2.75 ± 0.36

MVFPAKRFCLVPSMEGVRWAFSCG [AASDHPPT]
protein stability index [1]: 2.74 ± 0.79
protein stability index [2]: 2.77 ± 0.72

MWLTPLHRAVASRSEEAVQVLIKH [ANKRD44]
protein stability index [1]: 2.29 ± 0.12
protein stability index [2]: 2.45 ± 0.18

NAEMKSAMRKLWSKKVSLAGKWLY [OR4A15]
protein stability index [1]: 3.85 ± 0.63
protein stability index [2]: 2.8 ± 0.85

NAGTGLVINQADVRNNRSIIKQLK [PLD5]
protein stability index [1]: 3.88 ± 0.27
protein stability index [2]: 3.84 ± 0.11

NARGMGIRSPRPASVATWAIFVHR [CTBP1-DT]
protein stability index [1]: 2.16 ± 0.48
protein stability index [2]: 2.15 ± 0.37

NDSDHQSSTSPLMEGTPTIKSKKK [VPS39]
protein stability index [1]: 5.45 ± 0.26
protein stability index [2]: 5.57 ± 0.25

NESLASLPLRVSFCPLSLWRWQLY [CLPTM1]
protein stability index [1]: 2.45 ± 0.41
protein stability index [2]: 2.18 ± 0.4

NEYLLNLVATNAHLDHYYQEELPA [FCHSD1]
protein stability index [1]: 3.25 ± 0.11
protein stability index [2]: 3.27 ± 0.38

NFLLFDMTTHPLTNNNIKQRLIKK [GOLPH3]
protein stability index [1]: 2.62 ± 0.22
protein stability index [2]: 2.81 ± 0.25

NGFPDSTGDPLPEISKDNSCKENC [EDARADD]
protein stability index [1]: 5.2 ± 0.24
protein stability index [2]: 5.17 ± 0.48

NHDSHMAKERAHSTASHSSSNSED [PDZK1]
protein stability index [1]: 5.59 ± 0.17
protein stability index [2]: 5.61 ± 0.23

NIQVTGSAALFYLTNSEYRSEQSV [ZER1]
protein stability index [1]: 2.63 ± 0.24
protein stability index [2]: 2.84 ± 0.19

NKQTLSSGEKYDPDANTWTALPPM [GAN]
protein stability index [1]: 4.07 ± 0.39
protein stability index [2]: 4.03 ± 0.1

NLESKSTIGVEFATRSIQVDGKTI [RAB11A]
protein stability index [1]: 4.33 ± 0.19
protein stability index [2]: 4.27 ± 0.35

NLFCVLRLVVEFPATGGAIPSWQI [PKD2L1]
protein stability index [1]: 3.39 ± 0.28
protein stability index [2]: 3 ± 0.5

NLINQMLTINPAKRITAHEALKHP [CAMK2B]
protein stability index [1]: 2.38 ± 0.32
protein stability index [2]: 2.23 ± 0.12

NLMSLLMAVRPSLPESGLLSVLQI [FANCE]
protein stability index [1]: 3.09 ± 0.51
protein stability index [2]: 2.78 ± 0.55

NLNREEKIIREIDFYREDEDEEEE [TRIM55]
protein stability index [1]: 5.37 ± 0.15
protein stability index [2]: 5.3 ± 0.32

NLPNLAAAYSSILSSLGENPQRQG [GCH1]
protein stability index [1]: 3.03 ± 0.2
protein stability index [2]: 3.2 ± 0.43

NLSRGQTPLTEGSEDLDGHSDPEE [RETREG3]
protein stability index [1]: 5.65 ± 0.22
protein stability index [2]: 5.67 ± 0.15

NPVQPIGPQTPKACDSKLTFDAIT [MMP1]
protein stability index [1]: 4.21 ± 0.22
protein stability index [2]: 4.23 ± 0.22

NQEYKMLLDIKTRLEQEIATYRSL [KRT13]
protein stability index [1]: 2.58 ± 0.21
protein stability index [2]: 2.78 ± 0.19

NQILMEKYLKLQDTCRTQLVWLVR [INTS3]
protein stability index [1]: 2.02 ± 0.39
protein stability index [2]: 2.38 ± 0.31

NQSFNIVDIKPANMEELTEVITAA [PPP2R2B]
protein stability index [1]: 4.18 ± 0.26
protein stability index [2]: 4.26 ± 0.16

NRSDHGIFHSRTSLQKLSTKLSAQ [FCHSD1]
protein stability index [1]: 3.43 ± 0.25
protein stability index [2]: 3.67 ± 0.36

NSISSDKEATVPCTEILTEKKDTI [MIA2]
protein stability index [1]: 5.29 ± 0.28
protein stability index [2]: 5.06 ± 0.21

NVCSLLAQTPLHVAAETGHTSTAR [RIPK4]
protein stability index [1]: 3.67 ± 0.26
protein stability index [2]: 3.47 ± 0.27

NVSTKEGIHLALVELLKNLTKYPT [INTS4]
protein stability index [1]: 2.53 ± 0.36
protein stability index [2]: 2.5 ± 0.25

NYFVTMFDDYSATLPLTLIVILEN [SLC6A17]
protein stability index [1]: 3.05 ± 0.61
protein stability index [2]: 2.85 ± 0.62

PAAGESLSGTRESLAQGPDAATTD [TBC1D10A]
protein stability index [1]: 5.36 ± 0.32
protein stability index [2]: 5.29 ± 0.13

PANVDASVMYRKWKESKGKDREYT [CDC34]
protein stability index [1]: 4.16 ± 0.33
protein stability index [2]: 4.21 ± 0.13

PAPGKLLGPCVVGYGIYYFIYSTW [SAT2]
protein stability index [1]: 2.62 ± 0.65
protein stability index [2]: 2.92 ± 0.46

PCHPTVKNWRNFASKWGMSYDELC [EDARADD]
protein stability index [1]: 2.64 ± 0.28
protein stability index [2]: 2.54 ± 0.38

PDLNILEDSAESRPWRAGVLAEGD [PSD2]
protein stability index [1]: 4.87 ± 0.13
protein stability index [2]: 4.99 ± 0.14

PDLNTLLWEAEDRQNVPRKVPNHY [CPXM2]
protein stability index [1]: 3.87 ± 0.27
protein stability index [2]: 3.86 ± 0.092

PDNWFCYPCIPNHELVWAKMKGFG [ZMYND11]
protein stability index [1]: 2.43 ± 0.37
protein stability index [2]: 2.12 ± 0.18

PDQVAPFTFLQPLPLSPGVLSSTP [ATF4]
protein stability index [1]: 3.44 ± 0.33
protein stability index [2]: 3.74 ± 0.19

PDSELSPCIPPGFRNLVADRVLNY [SPAG8]
protein stability index [1]: 3.18 ± 0.23
protein stability index [2]: 3.34 ± 0.33

PDTRHPCSLGSSLVADYSDSESE [YJU2B]
protein stability index (treatment: DMSO, c terminus: native): 5.39 ± 0.1
protein stability index (treatment: MLN4924 1 uM, 8 h, c terminus: native): 5.29 ± 0.13

PECGLAKKPPEESTCFERPCFKWY [ADAMTSL2]
protein stability index [1]: 3.4 ± 0.42
protein stability index [2]: 2.96 ± 0.34

PEGNILRDRFKSFQRRNMIEPRER [NOP53]
protein stability index [1]: 4.25 ± 0.31
protein stability index [2]: 4.29 ± 0.36

PESLTKPDQVAPFTFLQPLPLSPG [ATF4]
protein stability index [1]: 4.21 ± 0.3
protein stability index [2]: 4.2 ± 0.12

PFSSSSPENVEDSGLDSPSHAAPG [FCHO1]
protein stability index [1]: 5.5 ± 0.19
protein stability index [2]: 5.4 ± 0.39

PGCGYFCTAGNFMECQPESSISHR [EHMT1]
protein stability index [1]: 2.64 ± 0.15
protein stability index [2]: 2.61 ± 0.53

PGEKSHWGEGLHQLREALKILAER [EMID1]
protein stability index [2]: 2.13 ± 0.33

PGFLSTAEEETLSRELEPELRRRR [ALKBH7]
protein stability index [1]: 5.12 ± 0.23
protein stability index [2]: 5.28 ± 0.3

PGGLTLEEHSLEQVQSMVVGEVLK [SPDEF]
protein stability index [1]: 3.34 ± 0.28
protein stability index [2]: 3.53 ± 0.38

PGKLFIGGLNTETNEKALEAVFGK [RBMX]
protein stability index [1]: 3.54 ± 0.35
protein stability index [2]: 3.69 ± 0.38

PGNRTCTGTSKRYQLCRVQECPPD [ADAMTSL2]
protein stability index [1]: 3.61 ± 0.32
protein stability index [2]: 3.69 ± 0.045

PGPHSAKQDSYEQGDSSQQSLKGH [ZC2HC1C]
protein stability index [1]: 5.24 ± 0.28
protein stability index [2]: 5.52 ± 0.082
